Numbering of substitutions follows the chain as printed.
B1: PRO1476 (scDb-scFv: 33-03-G02 sc03 / 38-02-A04 sc013 / 19-01-H04 sc03) (protein, from a related filing)
chain: DIQMTQSPSSLSASVGDRVTITCQASQSINNVLAWYQQKPGKAPKLLIYRASTLASGVPSRFSGSGSGTDFTLTISSLQPEDFATYYCQSSYGNYGDFGCGTKVTVLGGGGGSQSQLQESGPGLVKPSETLSLTCKASGFSFSSGYDMCWVRQPPGKGLEWIACVVAGSVDITYYASWAKGRVTISKDSSKNQVSLKLSSVTAADTAVYFCARKDAYSDAFNLWGQGTLVTVSSGGGGSGGGGSGGGGSGGGGSFQLTQSPSSLSASVGDRVTITCQASQSINDYLAWYQQKPGKSPKLLIYKASTLASGVPSRFSGSGSGTDFTLTISSLQPEDFATYYCQQGYIITDIDNVFGTGTKVTVLGGGGGSEVQLVESGGGLVQPGGSLRLSCAASGFSFSNSYWICWVRQAPGKCLEWIGCTFVGSSDSTYYANWAKGRFTISRDNSKNTVYLQMNSLRAEDTAVYYCARHPSDAVYGYANNLWGQGTLVTVSSGGGGSGGGGSIQMTQSPSSLSASVGDRVTITCQSSESVYSNNQLSWYQQKPGQPPKLLIYDASDLASGVPSRFSGSGSGTDFTLTISSLQPEDFATYYCAGGFSSSSDTAFGGGTKLTVLGGGGGSGGGGSGGGGSGGGGSEVQLVESGGGLVQPGGSLRLSCAASGFSLSSNAMGWVRQAPGKGLEYIGIISVGGFTYYASWAKGRFTISRDNSKNTVYLQMNSLRAEDTATYFCARDRHGGDSSGAFYLWGQGTLVTVSS
B2: PRO1432 (scDb-scFv: 33-03-G02 sc18 / 38-02-A04 sc013 / 19-01-H04 sc03) (protein, from a related filing)
chain: B1 chain with S115V, F210Y, F255I, L257M, S296A
B3: PRO1430 (scDb-scFv: 37-20-B03 sc01 / 38-02-A04 sc013 / 19-01-H04 sc03) (protein, from a related filing)
chain: DIQMTQSPSSLSASVGDRVTITCQASQSIGTYLAWYQQKPGKAPKLLIYRAFILASGVPSRFSGSGSGTDFTLTISSLQPEDFATYYCQSNFYSDSTTIGPNAFGTGTKVTVLGGGGGSEVQLVESGGGLVQPGGSLRLSCAASGFSFSNSYWICWVRQAPGKCLEWIGCTFVGSSDSTYYANWAKGRFTISRDNSKNTVYLQMNSLRAEDTAVYYCARHPSDAVYGYANNLWGQGTLVTVSSGGGGSGGGGSGGGGSGGGGSIQMTQSPSSLSASVGDRVTITCQASQSINNVLAWYQQKPGKAPKLLIYRASTLASGVPSRFSGSGSGTDFTLTISSLQPEDFATYYCQSSYGNYGDFGCGTKVTVLGGGGGSQVQLQESGPGLVKPSETLSLTCKVSGFSFNSDYWIYWIRQPPGKGLEWIGSIYGGSSGNTQYASWAQGRVTISVDSSKNQFSLKLSSVTAADTAVYYCARGYVDYGGATDLWGQGTLVTVSSGGGGSGGGGSIQMTQSPSSLSASVGDRVTITCQSSESVYSNNQLSWYQQKPGQPPKLLIYDASDLASGVPSRFSGSGSGTDFTLTISSLQPEDFATYYCAGGFSSSSDTAFGGGTKLTVLGGGGGSGGGGSGGGGSGGGGSEVQLVESGGGLVQPGGSLRLSCAASGFSLSSNAMGWVRQAPGKGLEYIGIISVGGFTYYASWAKGRFTISRDNSKNTVYLQMNSLRAEDTATYFCARDRHGGDSSGAFYLWGQGTLVTVSS
B4: PRO1479 (scDb-scFv: 37-20-B03 sc09.1 / 38-02-A04 sc013 / 19-01-H04 sc03) (protein, from a related filing)
chain: DIQMTQSPASLSASVGDRVTITCQASQSIGTYLAWYQQKPGKPPKLLIYRAFILASGVPSRFSGSGSGTDFTLTISSLQPEDFATYYCQSNFYSDSTTIGPNAFGTGTKVTVLGGGGGSEVQLVESGGGLVQPGGSLRLSCAASGFSFSNSYWICWVRQAPGKCLEWIGCTFVGSSDSTYYANWAKGRFTISRDNSKNTVYLQMNSLRAEDTAVYYCARHPSDAVYGYANNLWGQGTLVTVSSGGGGSGGGGSGGGGSGGGGSIQMTQSPSSLSASVGDRVTITCQASQSINNVLAWYQQKPGKAPKLLIYRASTLASGVPSRFSGSGSGTDFTLTISSLQPEDFATYYCQSSYGNYGDFGCGTKVTVLGGGGGSEVQLVESGGGLVQPGGSLRLSCAASGFSFNSDYWIYWVRQAPGKGLEWIASIYGGSSGNTQYASWAQGRFTISRDNSKNTVYLQMNSLRAEDTAVYFCARGYVDYGGATDLWGQGTLVTVSSGGGGSGGGGSIQMTQSPSSLSASVGDRVTITCQSSESVYSNNQLSWYQQKPGQPPKLLIYDASDLASGVPSRFSGSGSGTDFTLTISSLQPEDFATYYCAGGFSSSSDTAFGGGTKLTVLGGGGGSGGGGSGGGGSGGGGSEVQLVESGGGLVQPGGSLRLSCAASGFSLSSNAMGWVRQAPGKGLEYIGIISVGGFTYYASWAKGRFTISRDNSKNTVYLQMNSLRAEDTATYFCARDRHGGDSSGAFYLWGQGTLVTVSS
B5: PRO1482 (scDb-scFv: 37-20-B03 sc09.1 / 38-02-A04 sc013 / 19-01-H04 sc03) (protein, from a related filing)
chain: DIQMTQSPSSLSASVGDRVTITCQASQSINNVLAWYQQKPGKAPKLLIYRASTLASGVPSRFSGSGSGTDFTLTISSLQPEDFATYYCQSSYGNYGDFGCGTKVTVLGGGGGSEVQLVESGGGLVQPGGSLRLSCAASGFSFNSDYWIYWVRQAPGKGLEWIASIYGGSSGNTQYASWAQGRFTISRDNSKNTVYLQMNSLRAEDTAVYFCARGYVDYGGATDLWGQGTLVTVSSGGGGSGGGGSGGGGSGGGGSIQMTQSPASLSASVGDRVTITCQASQSIGTYLAWYQQKPGKPPKLLIYRAFILASGVPSRFSGSGSGTDFTLTISSLQPEDFATYYCQSNFYSDSTTIGPNAFGTGTKVTVLGGGGGSEVQLVESGGGLVQPGGSLRLSCAASGFSFSNSYWICWVRQAPGKCLEWIGCTFVGSSDSTYYANWAKGRFTISRDNSKNTVYLQMNSLRAEDTAVYYCARHPSDAVYGYANNLWGQGTLVTVSSGGGGSGGGGSIQMTQSPSSLSASVGDRVTITCQSSESVYSNNQLSWYQQKPGQPPKLLIYDASDLASGVPSRFSGSGSGTDFTLTISSLQPEDFATYYCAGGFSSSSDTAFGGGTKLTVLGGGGGSGGGGSGGGGSGGGGSEVQLVESGGGLVQPGGSLRLSCAASGFSLSSNAMGWVRQAPGKGLEYIGIISVGGFTYYASWAKGRFTISRDNSKNTVYLQMNSLRAEDTATYFCARDRHGGDSSGAFYLWGQGTLVTVSS
B6: PRO1431 (scDb-scFv: 33-03-G02 sc18 / 38-02-A04 sc013 / 19-01-H04 sc03) (protein, from a related filing)
chain: DIQMTQSPSSLSASVGDRVTITCQASQSINDYLAWYQQKPGKAPKLLIYKASTLASGVPSRFSGSGSGTDFTLTISSLQPEDFATYYCQQGYIITDIDNVFGTGTKVTVLGGGGGSEVQLVESGGGLVQPGGSLRLSCAASGFSFSNSYWICWVRQAPGKCLEWIGCTFVGSSDSTYYANWAKGRFTISRDNSKNTVYLQMNSLRAEDTAVYYCARHPSDAVYGYANNLWGQGTLVTVSSGGGGSGGGGSGGGGSGGGGSIQMTQSPSSLSASVGDRVTITCQASQSINNVLAWYQQKPGKAPKLLIYRASTLASGVPSRFSGSGSGTDFTLTISSLQPEDFATYYCQSSYGNYGDFGCGTKVTVLGGGGGSQVQLQESGPGLVKPSETLSLTCKASGFSFSSGYDMCWVRQPPGKGLEWIACVVAGSVDITYYASWAKGRVTISKDSSKNQVSLKLSSVTAADTAVYYCARKDAYSDAFNLWGQGTLVTVSSGGGGSGGGGSIQMTQSPSSLSASVGDRVTITCQSSESVYSNNQLSWYQQKPGQPPKLLIYDASDLASGVPSRFSGSGSGTDFTLTISSLQPEDFATYYCAGGFSSSSDTAFGGGTKLTVLGGGGGSGGGGSGGGGSGGGGSEVQLVESGGGLVQPGGSLRLSCAASGFSLSSNAMGWVRQAPGKGLEYIGIISVGGFTYYASWAKGRFTISRDNSKNTVYLQMNSLRAEDTATYFCARDRHGGDSSGAFYLWGQGTLVTVSS
B7: PRO1473 (scDb-scFv: 33-03-G02 sc03 / 38-02-A04 sc013 / 19-01-H04 sc03) (protein, from a related filing)
chain: B6 chain with I2F, M4L, A43S, V374S, Y469F

Target: human PDL1 expressed on cells (human) (UniProt Q9NZQ7)
Assay: cell-based or functional assay

| Binder | NF-AT potency assay IC50 (with HSA) [ng/mL] | NF-AT potency assay rel. IC50 (IC50, Avelumab/IC50, test molecule) (with HSA) |
| --- | --- | --- |
| B1 | 53.5 | 0.66 |
| B2 | 18.5 | 1.98 |
| B3 | 16.2 | 1.45 |
| B4 | 50.4 | 1.04 |
| B5 | 54.8 | 0.68 |
| B6 | 9.83 | 3.73 |
| B7 | 35.2 | 1.11 |

Target: human CD137-Fc chimeric protein (human) (UniProt Q07011)
Assay: SPR Biacore T200; CD137-Fc captured; molecule as analyte

| Binder | Kd [nM] | koff [s⁻¹] | kon [M⁻¹ s⁻¹] |
| --- | --- | --- | --- |
| B1 | 1.1 | 0.00037 | 350000 |
| B2 | 0.75 | 0.00045 | 600000 |
| B3 | 1.5 | 0.00071 | 460000 |
| B4 | 1.7 | 0.00054 | 330000 |
| B5 | 1.1 | 0.00036 | 320000 |
| B6 | 1.7 | 0.00075 | 450000 |
| B7 | 2 | 0.0006 | 310000 |

Target: human PDL1 (recombinant, soluble) (human) (UniProt Q9NZQ7)
Assay: PDL1/PD-1 competition ELISA; PD-1 coated, biotinylated PDL1 1 ng/ml

| Binder | IC50 [ng/mL] | rel. IC50 (IC50, Avelumab/IC50, test molecule) |
| --- | --- | --- |
| B1 | 2.84 | 0.8 |
| B2 | 3.26 | 0.43 |
| B3 | 1.92 | 0.73 |
| B4 | 2.65 | 0.86 |
| B5 | 1.78 | 1.24 |
| B6 | 2.75 | 0.51 |
| B7 | 4.14 | 0.56 |

Target: human PDL1 (recombinant, soluble) (human) (UniProt Q9NZQ7)
Assay: PDL1/B7-1 competition ELISA; B7-1 coated, biotinylated PDL1 40 ng/ml

| Binder | IC50 [ng/mL] | rel. IC50 (IC50, Avelumab/IC50, test molecule) |
| --- | --- | --- |
| B1 | 9.49 | 1.1 |
| B2 | 2.83 | 0.99 |
| B3 | 2.42 | 1.15 |
| B4 | 10.7 | 1.38 |
| B5 | 8.18 | 1.51 |
| B6 | 3.31 | 0.84 |
| B7 | 8.89 | 1.49 |

Target: Fc tagged human PDL1 (human) (UniProt Q9NZQ7)
Assay: SPR Biacore T200; PDL1-Fc captured; molecule 0.12-90 nM

| Binder | Kd [nM] | koff [s⁻¹] | kon [M⁻¹ s⁻¹] |
| --- | --- | --- | --- |
| B1 | 0.009 | 3.1e-05 | 3.4e+06 |
| B2 | 0.011 | 4.4e-05 | 4.2e+06 |
| B3 | 0.0045 | 2.4e-05 | 5.3e+06 |
| B4 | 0.0092 | 3.9e-05 | 4.2e+06 |
| B5 | 0.0098 | 3.3e-05 | 3.4e+06 |
| B6 | 0.014 | 4.5e-05 | 3.3e+06 |
| B7 | 0.0082 | 2.9e-05 | 3.6e+06 |
